Consider 25 sequences from a protein production outcome set (Wang et al. 2014).

The nature of this data set: label from the status in PepcDB records.
For the sequence “MMEKDERFKQAEFGAIVGIVGNIILAIIKAVIGYIGNSKALLADAVHSASDVIGSLAVLFGLRAAKQPPDEDHPYGHGKAESISAIIVAVLLFIVGIEIAISSIKAFSQELEPPKGITIFAVVLSIIVKEGMFQYKFRLGKRVNSDAIIANAYEHRSDVFSSIAALIGICAAIIGGKFGLDWLVYADPIAGLFVSLLVAKMAWSIGTEAIHATLDHVLHEEDVIPLREAVLQIDGVKKIGSLYAREHGHYVIVDIKVSVDPYITVEEGHRIGKRVKETLMLQDNVQNVFVHINPYSPN”, the protein production result is listed as “failed”.

Turning to “MRRTLVVPDVLLLGTLLAGLLLLSGCEGDYRPRAVGPIGEITVVMDSSHWTGPSGEALRANVTPWVETLPVSERSFQLRHLELTDERTYERVQDLKNVIIAAPLSDSTNETSFLRRRLSDEAEQAILDGQTAVVPKPNLWRRSQRIYYVAAASPDALAETFQSQGTQIRDTFTEATLQRMDRNMYEDDRRSALEDTLMQRHGFAVNMQSDFQIAVDTTTGSEGFVWLRRLLAQTRREFFVYYVEDVSPDQITPEWIYNTRDSLTRRHLRGNVRGFAKIDYRRPLKTEQRSFLDRYAYDSRGLWYMVAPLGGGNELRPVGGGGPFVNYTFYDQATDRVYMLDGSIFAPDNDKIDLLRQMEVMARTFRTAEGSRSPDASPTAAKLEHHHHHH”, the protein production entry was “failed”.

As to “MGRKSNRAKEKKQRRLEERAAMDAVCAKVDAANKLEDPLSAMPVFKKYDRNGLNLQIECKRVTALSPDTVEWAYELTRANMQTLYEQSEWGWKEREKREEMKDERAWYLLARDADSTPLAFSHFRFDVECGDEVLYCYEVQLESKVRRKGLGKFLIQILQLIANSTQMKKVMLTVFKHNHGAYQFFREALQFEIDETSPSMSGCCGEDCSYEILSRRTKYGEVSGHAHGGHCGGCCH”, the protein production result is listed as “not failed”.

As to “MQLTSENYYSQEANKEYMSVSGYKDFAGTYGKMPCEFYGMEKLNGRWEDEKSTALLVGSYVDSYFEGSLDQFKKDNPEIFTQKGELKANFKQAEEIIARIERDEYFMKYMSGQKQVIMTGELFGAKWKIKMDSYIPGVAIVDLKVMASITDLKWVKDIGYLDFVRYWGYDIQGAVYQEIVRQNTGEKLPFFIAGATKQTEPDIRIIHVTDNYLQEALHMVEMNMPRILRVKNGEVEPDRCELCDCCRHNRVLKKPISIMDLTAGI”, the protein production entry was “not failed”.

For the sequence “MRGANERKTERARGLRQSDNDAEALLWSELRDRRLNGFKFVRQVAVGPYFADFACRDERLVVEVDGSQHQIGSGDARRDKFMVMNGWSVLRFWNTDIFNDRAAVLETIVAVLEKRLVREVRSADLTFIPGEKKR”, the protein production result was “not failed”.

Turning to “MELDDAYANGAYIEGAADYPPRWAASAEDFRNSLQDRARLNLSYGEGDRHKFDLFLPEGTPVGLFVFVHGGYWMAFDKSSWSHLAVGALSKGWAVAMPSYELCPEVRISEITQQISQAVTAAAKEIDGPIVLAGHSAGGHLVARMLDPEVLPEAVGARIRNVVPISPLSDLRPLLRTSMNEKFKMDADAAIAESPVEMQNRYDAKVTVWVGGAERPAFLDQAIWLVEAWDADHVIAFEKHHFNVIEPLADPESDLVAVITA”, the protein production entry is on record as “not failed”.

On to “SSPVPFGPEGRLEDKLHKPKATQTEVKPSVRFNLRTSKDPEHEGCYLSVGHSQPLEDCSFNMTAKTFFIIHGWTMSGIFENWLHKLVSALHTREKDANVVVVDWLPLAHQLYTDAVNNTRVVGHSIARMLDWLQEKDDFSLGNVHLIGYSLGAHVAGYAGNFVKGTVGRITGLDPAGPMFEGADIHKRLSPDDADFVDVLHTYTRSFGLSIGIQMPVGHIDIYPNGGDFQPGCGLNDVLGSIAYGTITEVVKCEHERAVHLFVDSLVNQDKPSFAFQCTDSNRFKKGICLSCRKNRCNSIGYNAKKMRNKRNSKMYLKTRAGMPFRVYHYQMKIHVFSYKNMGEIEPTFYVTLYGTNADSQTLPLEIVERIEQNATNTFLVYTEEDLGDLLKIQLTWEGASQSWYNLWKEFRSYLSQPRNPGRELNIRRIRVKSGETQRKLTFCTEDPENTSISPGQELWFRKCRDGWRMKNETSPTVELP”, for which the protein production result is listed as “not failed”.

As for “MAAPGGRGRSLSGLLPAQTSLEYALLDAVTQQEKDSLVYQYLQKVDGWEQDLSVPEFPEGLEWLNTEEPISVYKDLCGKIVVLDFFTYCCINCIHLLPDLHALEHTYSDKDGLLIIGVHSAKFPNEKVLDNIKSAVLRYNITHPMVNDADASLWQELEVSCWPTLVILGPRGNMLFSLIGEGHKDKLFLYTSIALKYYKDRGQIRDNKIGIKLYKDSLPPSPLLFPGKVTVDQVTDRLVIADTGHHRILVVWKNGQIQYSIGGPNPGRKDGIFSESTFNSPQGVAIMNNIIYVADTENHLIRKIDLEAEKVSTVAGIGIQGTDKEGGAKGEQQPISSPWDVVFGTSGSEVQRGDILWIAMAGTHQIWALLLDSGKLPKKNELTKGTCLRFAGSGNEENRNNAYPHKAGFAQPSGLSLASEDPWSCLFVADSESSTVRTVSLKDGAVKHLVGGERDPMNLFAFGDVDGVGINAKLQHPLGVTWDKKRNLLYVADSYNHKIKVVDPKTKNCTTLAGTGDTNNVTSSSFTESTFNEPGGLCIGENGELLYVADTNNHQIKVMDLETKMVSVLPIFRSENAVVDGPFLVEKQKTLPKLPKSAPSIRLSPVTACAGQTLQFKLRLDLPSGSKLTEGVSSCWFLTAEGNEWLLQGQIAAGDIENISSQPTISLQIPDDCLSLEAIVSVSVFLYYCSADSSACMMKAILFSQPLQITDTQQGCIAPVELRYVF”, the protein production result is “failed”.

For “MTMIEPDPADFEPIHPYSLARISHVALQAGAVLAQSGASVRVVHEGARMVAEGLGVEVLGMRSGYASFEITLARGHHSFTRMTQIGPHGVNHRLDFAVRDLLKRAARGDMTPDAIEAELKRLQSETPRHPPWLVAIATGAACAAFGRLLGSDWLSFGPVLAAASIGQGVRHLLLGRRFNVFVVAAIVGCISAALGGLGARLIGSSTTELAMMASILLLVPGVPSTNAQTDVMDGYPTMGSARAVTVIMIMVFAVTGLWLAEFVLRIHT”, the protein production result is “failed”.

As to “MFLKIPFKILRLATAYVRIRVKNIILKLKLVFGKNVFIGSNVVIDPGYHWLISIGNNSAITNGVTILSHDGSLSRHTGYTKIGKVSIGSNTFIGVKSIILPGVSIGNNVIIGAGSVVTKDIPDNSVAIGNPAVVVGSIKDYINKHKRMIRTSEVYECQSLLKDNIRDFKGEIGYVKTNFENHEDL”, the protein production result is recorded as “failed”.

On to “NTDYYGLDYALSFNQVEIEEKRIVIAGSGGIARTVIRYMLDHGAHRVDVLTRNAQNARRNLDIPGIGLHENIDEDYDIYVNCTPLGTLGDGDPFSTVDFRSGRTGIDLVYNPPDTPFLKRMRNAGGRTVSGLDVFIGQGLRTLELVFGIRPDSIFREYAVEALNEIR”, for which the protein production result is listed as “failed”.

Take “MPRPDNVPVYTMRQLAAFVAVAETGTISGAAERMHLSQSALSAAVTDLEKALKAQLCVRRRARGVQLTPTGEAVLSRARALLQQAGELQSDASGEGGV”: the protein production result is “failed”.

On to “MAQVNKQAIAAAFGRAASQYEQHASLQQHSADALLTLLTGRQFASVLDAGCGPGRMSRYWRERGSEVTALDLSLPMLQQARDRQAAHHYLLADIEAIPHDAEVFDLAWSNLAVQWCGDLRDALSELYRVVRPGGVVAFTTLCQGSLPELRQAWQAVDNRAHANSFLPEEAIDHALRGWRAFRHTQAMTLWFEDALSAMRSLKGIGATHLHEGRESDVLTRARLRQIQLAWPQRQGKYPLTYHLFMGVIERD”, for which the protein production result is listed as “failed”.

Regarding “MDTDWSNLAVRLERLLERFERIIDRHDPVLPRDPAFFDGAIAFRWRRSGEQGTFEPVTHPHLPDPADLVGIDLVREDLIRNTAQFMDGYPANNVLLWGERGTGKSTCVKGMLRLFADRGLRLVEVQRDDLMSLPALIAALRSVPRRFILFCDDLSFGEGEGGYRELKALLEGSIEAKPTNILFYATSNRRHLLPERMEDNLSSEIHPEEAVSEKLSLADRFGMALGFYPFSQDVYLSIVERYAEKFALPMEREALRKEAHLWAMYRGSRSGRSARQFIDDLAGRLGVRLNDRLEHHHHHH”, the protein production result was “failed”.

Take “MGRTPETHVIDFRAAEQLLAARDPRGAVKLLDPVIAAHPENTAARLLRARAFFAAAQLRPAELEFTIVLEREPDNAFAHFALARTYERQLRPDQAKRHFRLAAALDPNPQYLKAARLEHHHHHH”: the protein production entry is listed as “not failed”.

With “MEKNQSDDDGTALIFLGTGCSGAVPDFRCLLQPSDPPCHVCSQSLSLLPHLNPNYRCNTSLLIDYCSKEEDGRHKYILIDVGKSFREQIILTHEHADAVHGLDEIRSLQPRGATIVDTDPLPVFLSQFTMESIATRFPYLVEKKVKEVPRRVSLLDWKNIEENCDEPFAASGLSFTPLPVMHGEDYIALGFLFGDKSKVAYISDVSRIPPSTEYAISKAGAGQLDLLILDTNIPWKRGPHPTHICFTEALEILKRLCPKRALLTGMTHEFDHHEYNEILAEWSLRDYVDF”, the protein production entry is on record as “failed”.

On to “MTKITLSPQNFRIQKQETTLLKEKSTEKNSLAKSILAVKNHFIELRSKLSERFISHKNTESSATHFHRGSASEGRAVLTNKVVKDFMLQTLNDIDIRGSASKDPAYASQTREAILSAVYSKNKDQCCNLLISKGINIAPFLQEIGEAAKNVGLPGTTKNDVFTPSGAGANPFITPLISSANSKYPRMFINQHQQASFKIYAEKIIMTEVAPLFNECAMPTPQQFQLILENIANKYIQYTP”, for which the protein production entry is given as “failed”.

Take “MGHHHHHHSHMQDRRSVCIFLPNDESLNIIINVKILCHQLLVQVCDLLRLKDCHLFGLSVIQNNEHVYME”: the protein production entry is recorded as “not failed”.

In the case of “MIQCILVMLGGGIGAVIRGFVTDVFNQKFNTSLPIPTLLINVVGSFCIGLLMGMCLNINWINPFIIVGILGGLTTFSTLSSELVKLLTTPKQINLFILYSILQYGVSFVACLLGYYLF”, the protein production result is “failed”.

Take “MFAGSIPMYIRVVSITAQSKLQFDMTVTYFENVWSPKVISLGAISAEFVQSNENSGMYIIHYPDKQTAISVFDKIKPEVDEVRTQNRIQITEGKRLFRVD”: the protein production entry is “not failed”.

With “PEVGSSEHKLKIRNIKLSDYDDIFEIMESVYADIGGPWTKKELRSHLNHFPEGQICIEDNGKVIAAAFSLIVNYSNYGDKHTYQQITGDGLLTNHDPEGDTLYGIDIFVHPEFRGLRLGRRLYDARKELCEKLNLRAIIVGGRIPGYKNFAKKLTPRQYIEEVKKKEIFDPVLTFQLANDFHLRKIIQGYLPDDRDSKAYAALLEWKNALYEIEE”, the protein production entry is reported as “failed”.

As for “KSTVEKSTVGQKVAIVREDTGTIAELAEKALGNMVDIVYAGSDLKEAEEAVKKEKAPAIIVIPKGFSQSLESGEKARLEIVWYLRGTGLSEAVSTGTISSLIESLKVQLASFLLNDPKKAQLLFDPLEIVQHTYLRGSLFKNHSPEAIMNVFYSQN”, the protein production result is on record as “not failed”.

Regarding “MKGVRSMMGNLVITIGRECGSAGRLIGQKLAADLGVKCYDKELLTLAAKNSGLCEELFKTHDEKPTSSFLYSLVMDTYSLGYNTSAYMDMPINHKIFLAQFDTIKKLAEEESCVIVGRCADYALADYPNTVSVFICGDEEDKIRHLMERHNVDEAKAKDIMIKTDKRRASYYNYYSSKRWGSCKSYDMCISSSAVGYDGAVDIIKEFAKKKQEFLKTKNYK”, the protein production result was “not failed”.

Turning to “HGTGKQTNALADYWTSEFVNSVRQGIPVPNNYTVINCDFDQYMWEEAAAGCLATQLNSFIQAKNIDDLILLTHSNGGNVVRWILSNPTWDSRYPAVINATSKVIALAPSSGGTPLADAVNQGNVFETTLGWLLGYGSNAVKQQQVGWMAHYNNTWLFGTAGRPRLGKPFEVVVGSDVDSAIWDSDSYCAGYQYQVALETTQNWLDSCSDGFLNCSSQKAAGTVWFTDKQKTRGQEPLSHQQSRRACFNLDTL”, the protein production result was “failed”.

For “MLRNTSHSYGGIARALHWLCALAVIAALVFIELKGNFPKGDPLRSGLGYAHVQAGLIVLLLVLPRLAWRLGNPPPAIEPAPSPAMNLLAHAGHWALYALMLALPILGIAFIQANGREVALFGLALPAFMPNDPPLGKELKEIHELLGNVLLWLSILHAAAAVWHHRFLKDDTLTRLTGPMR”, the protein production result was “failed”.
